Assay results from a protein production outcome set (Wang et al. 2014).

Assay: label from the status in PepcDB records
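Also: failed if final PepcDB status was selected cloned or expressed and not failed if soluble or beyond.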

Sequence | protein production
MINFEATELRLGLPGGNHGGEMAGKNNGKRGFSETVDLKLNLSSTAMDSVSKVDLENMKEKVVKPPAKAQVVGWPPVRSFRKNVMSGQKPTTGDATEGNDKTSGSSGATSSASACATVAYVKVSMDGAPYLRKIDLKLYKTYQDLSNALSKMFSSFTIGNYGPQGMKDFMNESKLIDLLNGSDYVPTYEDKDGDWMLVGDVPWEMFVDSCKRIRIMKGSEAIGLAPRALEKCKNRS | failed
MARVARWFLAVETVAFLGAAGVHAGVLWRGHEHARAATAETVIGVVLGLALLAAAARPRWSRRAAIGAQAFALLGTAVGLFTIAIGVGPRTAPDLAFHVAIVATLVVGLLRLARPTAGLREATP | failed
MKNRSLTLRLISVLCLTALFVWLGSTLVAWWQVRHDVNKVFDAQQVLFAERLANSDLSTILLESSTTLNKNSQSVLKKSYDDDALAFAIFSKTGKLLFSDGRNGKDFIFNYKTGFYNANIYDDDDKWRIFWRMAANGELVIAVGQELDYREDLIEEMILGQMWIWFASLPILIIVLGWLIHKELRPIKRLSQEVQTRKSGDVSLLNTEGLPVEILPLVKNLNQFFDRTSAMLQRERRFTSDAAHELRSPLAALRIQIEVAQLAGDDVALREQALLHLTQGIDRASQLIEQLLTLSRLDNLQALETLQLLDWEAIVQSLISERYFVAEKRKITLVFEKESEPKQKQGQSILVSLMLRNLLDNAIKYCPEDTIVSVKISSSQIIIEDNGGGVEPEDLKKLGQRFYRPAGQNEKGSGLGLSIVMRIAELHGFKVRLENVVKEGRRIGLKAIISL | failed
MGVLRPAAPITGTPNTRLTPVRRRLPTAEAKPTPRFNTPTNKLPEQMSSESPRNPLLDTWTETSSHMFNSVVAANRAAFAAFGVQQEEENGVTPAERIEPDEDLPEWHVSISEEHPGRLGVGDHVDFTKTISEHDVQQFAAASGDTNPLHLDDEFAEQTRFRGRIAHGTLVGSLISAALARLPGLTIYLSQDLEFHNPVRIGDRLTAECEIVEDLGDEQYRLTTRVLADDEVVIDGEAVVLIDDLPE | failed
SYETSQHNLDAVEAVLSRLQKQTGEMAAYMVPVGYRALCVSQRESMQALRCSFVQGQSQPLLRGASSKVMLAYMPAARCEKILRYFGEDPTLDKWQSEFEKIRRHGYAVSTSEIDPGVSGISAPVMKGSKLIGAISVMAPAHRVESNKQRIILHVLQAARAL | not failed
MWIVLWPGLTGLPDSLVLLARVGGCSVLYDTGSGEPGSIVALAANLASAGVKPWSINVAIVSHAHVPSSGGARWLHDNHRVTIAARRPDSRWIEEGDPVKTAAVDYGLPTKPVPIGLELEREGRMPGECEGVEVLFTPGHTPGSVSVSLDTGDATVLAVSDALGRLKRDWGSSEREWMESLDKISSRDPDYLCTSVTCMDRRAAKAFLDEIREKGPVWDVENSSGDGPG | failed
MTRMKMFKLWMVVMLLGLLPIVSEAQEEINNAINVQLEYLKKYPKDKEALRKVSFLYLNKADYDQAIFYGRQLFELGYNERDYNGAVIYSHICLGQAHMMKGNVKEAYSHLGQARLIGESNKNDSALCSVYNGLGLYASNVQKDYYRSLTYFFKGVEAARRCHYDRLYSILLSNIAGIYYLKNDSTGLKYALECYELGHERKDPYLIYSGSTNTAYMYYLKSDYNTALKYIQEAEFTMVQNDFYDQSNVYNLYGYILHKLNKDDEALVFFRKALDLKEQGNISSVMNSYLGYAEILMEHHQYDRAVRMLKAGIELSYQQANAIYRSDLLKALSRCYEEDGMLVEALKYHKLYQLETDSLYNAEKERAVGEIRAKYDMERQENEIKQNRLELLEKENKMQLLIAGFICIFIAASLLYYLYYRKNKLYLTIVKQNQDAIRREQQLQNKIDEQFAEIGRQSALLQEYLTDSTKTSLPQPEKYASSSLTDEKKQDLFLRLETLLWEEKVFTDNLLTKEKVAEMLGTNRTYLSQIINEQTKQTFTQFVNGFRTKEAVRLLSDPDNQTPLKAISAELGFNSMTTFYSQFQAATGMTPAQYRNKVQELHKNR | failed
MRVARLFRFPVKGFPAEEIPEADVRTGRGIRGDRVAAFTNGSLDIPDDSWHRYSAFTVLKNDTDLQKWQVELDLAEAADSSQPAVADPSATVTLTSPQNETTTFRTDDRDTRATSADFLSARIPPQGDFPRALSVADQGMFDSQAAGVSIINPATVAAISQTADGQAALAPGETELDPLRFRGNVLVDGLAPFEEFALIGKIVRLGGVRLAITQAIERCPATTVNPTTTAVDVNVPRVLASACGHLHCGVYGRILESGLVSTGDEIEIEGDAPRELVKTARTPRFMTVLGSQQICNDIVEVSLRDDQGWIREFDEPGTNLRVHLDLGEPFWRTYTITDVSDDIVSIAVRTQGKGSRAVAELAAGQSVLASGPHGTMTANRVFGGTTALVTAGIGITPSLGLMRGAELSGTEKIKLFHVDRDHRTACLWDRLQKRAHSRQIPVETHHRDTASQGRPGHADLVDWLAGCDNVMVCGPADFTRAVLDASAEAGVPAVHQEIFASPNTGMSEAIAQCSPAEVTLENSGTSFLWEPQQGTLLEALEARGLRADNSCRGGSCGTCAVSLAAGSVIYPVEPAARIAADEVLVCSAVPSGPISLGILEHHHHHH | failed
MLEHHFRSLKAIDRVRAQWLGPQIERYVQSLDELHTSNATVRQHIRALGHFNDFVIARGVTKLEALPDHVDAFVEYWHAGHAGWCKNNQDRAAVTAQSRVPVERMLCLALPDYTRPNNRPAMPFANTVPGFLPFLNDEKGLRQESQQRYLYTLRPFEAYLNRGGIALSGLEPAHISRFLEERAKTLHKAGMRDTAGALRIFLRYLHREGIVATDLVRSVPRGRIYRQASIPRAIGWQDVERLLTSIDRRSILGKRDYAILTLLASYGLRAREIAALCLDDFDWTHAQISIPMRKGGHSTRYPLSATVGDAVISYLQARRSDVPHRQVFLTARSPYIPMRHWTVSAMVGIRMRDIGIQVTRAGSHTLRHACVQHLVEADMPFKVIGDYVGHSHPSSTLVYGKVAVHKLRQIVLFQGEDVL | failed
MEKKEMEKLCQRCKQSYTDLSNETSSCRFHPSFFVCRRHDDQKRYYELKPDDPPYAAKFYDCCGAEDPNAPGVKDLACDLSAGYCLEPLLALHTATE | failed
MLLQKSKVLVLNASYEPLSICDARNAVLLLFCGKAMMVASHPEHRIRTVTENFPLPSIVRLMVYVRIDYRGAVLNRKNLFRRDGFRCQYCGCKDGSLTVDHVMPKSRGGEDTWENLITACKSCNTKKGNRTPSEAGMAMLNKPCRPSNITLMRQHYRSISDEWKPYLFMS | failed
AEPTLYGRYENIKVLEIGQTFKAKMDTGALTASLSAKDIELFQRDGDDWVRFRLATKGADDKVYEHKVSRISKIKGRAEGDDEDDEGINPAKRPVVDLELCLGNKKRTVEVNLVDRSHFNFPLLIGAKALREFGAAINPARRYTADEP | failed
MHRSIRFTFDDRVPRYWHAGRAHTTRFFDCLSFMFPQGEKIFIESVVHFRHKLDKDSALDKAVDDFIYQEASHMREHRAYNQRLCAQGAPVETLERMLLRRRKESARLPASFRLALTASLEHITAILSDQLLRNPAYLKNADPTMAGLWRWHALEEIEHKAVAYDVLCTVERNPLWRYLLRCVAMLSLSVYFTFDLGYFTYHLVRGDKQHRNWREWLRLQWWLFVNPGLLSRIVPAGLFWFVPGFHPNRIDTRALLDTARQALDEQR | failed
MDTKHFLPLDFSTQVNSSLTSPTGRGSMAAPSLHPSLGPGIGSPGQLHSPISTLSSPINGMGPPFSVISSPMGPHSMSVPTTPTLGFSTGSPQLSSPMNPVSSSEDIKPPLGLNGVLKVPAHPSGNMASFTKHICAICGDRSSGKHYGVYSCEGCKGFFKRTVRKDLTYTCRDNKDCLIDKRQRNRCQYCRYQKCLAMGMKREAVQEERQRGKDRNENEVESTSSANEDMPVERILEAELAVEPKTETYVEANMGLNPSSPNDPVTNICQAADKQLFTLVEWAKRIPHFSELPLDDQVILLRAGWNELLIASFSHRSIAVKDGILLATGLHVHRNSAHSAGVGAIFDRVLTELVSKMRDMQMDKTELGCLRAIVLFNPDSKGLSNPAEVEALREKVYASLEAYCKHKYPEQPGRFAKLLLRLPALRSIGLKCLEHLFFFKLIGDTPIDTFLMEMLEAPHQMT | failed
MEGMKGAVLITGASRGIGEATARLLHAKGYRVGLMARDEKRLQALAAELEGALPLPGDVREEGDWARAVAAMEEAFGELSALVNNAGVGVMKPVHELTLEEWRLVLDTNLTGAFLGIRHAVPALLRRGGGTIVNVGSLAGKNPFKGGAAYNASKFGLLGLAGAAMLDLREANVRVVNVLPGSVDTGFAGNTPGQAWKLKPEDVAQAVLFALEMPGHAMVSEIELRPTRPTSGPR | not failed
MSTTALVGTGHRPTIVLVGHGMVGQRFLEALAERGLTATHRVVVLCEEPRPAYDRVQLTSYFSGTTPDELSMTDAEFITEHGIDLRLGDPAETVDREARTVTARSGLVIAYDTLVLATGSYPFVPPVPGKDAEGCFVYRTIEDLLAIEAYAKSRATTGAVVGGGLLGLEAAGALKGLGLTSHIVEFAPRLMPVQVDAGGGAALLRTIEDMGLTVHTGTGTQEIVTGDDGAVTGMKLSDGSELATDLVVFSAGVRPRDQLARDCGLPVGERGGIAVDAQCRTEDPHVFAIGECALAADGRVYGLVAPGYEMAETAAATIASADSSFTGADLSTKLKLLGVDVASFGDAHGATAGCLDVVYADSRSGTYKKLVIGRDGELLGGILVGDADAYGTLRALTGSVPPVSPEQLVLPAGGGGGVALGPSALPDSAVICSCHNVTKGAIRGAVTEHSCTTLPEVKKCTKAGTGCGSCVKVLGQLVNDELTASGVEVDHGLCGCFTQTREELYEIVLALRITSYRSLLDRYGREGARGGDGCEVCKPTVGSIIASLAPTIGANGYVLDGEQSALQDTNDHFLANLQKNGSYSIVPRIPGGEITPEKLIVIGEVARDFGLYTKITGGQRIDLFGARVEQLPLIWTRLVDAGFESGHAYGKSLRTVKSCVGQSWCRYGVQDSVRMAIDLELRYRGLRSPHKLKSAVSGCARECAEAQSKDFGIIATANGWNLYVGGNGGATPRHADLLAQDLSDAELVRLIDRFLMFYIRTADRLERTSVWLERIPGGLDHIRDVVVHDSLGICEELESLMTAHVANYRDEWTETINDPEKLARFVSFVNAPDTPDPVVGFVPERDQIKPDLPLLTIGHRPLEGSAQR | failed
LETERNRYKWLFENAVHGIFQASLQAGMRAANPALARMLGYQDPQEVLFSLADLAGNLFVGGAGELAAIGEQLQNQRSLLGYETQLRRKDGSSIDVLMNLLLKPDQDGLVEGFVADITERKLAQQHLEQLNDQLEQR | failed
MSDLITLAQLSQGYRYNSDSLILADFILKQGIKGAVFDVGAGCGIIGILLKKNIANLSLSLIDIQKENIELIEKNLKSNKIQGDIFHDDFNQFQIIKKFDFIVCNPPFYRQGAYKSEDQHKAISKFQEFLPLHSFLAKTNSMLKPNGTLYFCYEALALDEICFILKDMKMKITKLCFVHTHQSKKARLVLIQVKKGSKSPCEILPPFFVYENEILSKQMQEIHLRFRLKSYDI | failed
MSLNRRELLERISEYQFACIELNLYLDNNPRDKKALDSYNRYCDKFTQAVCDYESKYGALTNFGYESSEYPWSWISEPWPWDKSFYKLEHHHHHH | not failed
MELSAVGERVFAAESIIKRRIRKGRIEYLVKWKGWAIKYSTWEPEENILDSRLIAAFEQKERERELYGPKKRGPKPKTFLLKARAQAEALRISDVHFSVKPSASASSPKLHSSAAVHRLKKDIRRCHRMSRRPLPRPDPQGGSPGLRPPISPFSETVRIINRKVKPREPKRNRIILNLKVIDKGAGGGGAGQGAGALARPKVPSRNRVIGKSKKFSESVLRTQIRHMKFGAFALYKPPPAPLVAPSPGKAEASAPGPGLLLAAPAAPYDARSSGSSGCPSPTPQSSDPDDTPPKLLPETVSPSAPSWREPEVLDLSLPPESAATSKRAPPEVTAAAGPAPPTAPEPAGASSEPEAGDWRPEMSPCSNVVVTDVTSNLLTVTIKEFCNPEDFEKVAAGVAGAAGGGGSIGASK | failed
MSVLVVGGDEITPIKAVLENLGCKDITHWDGRRESINRKNIPQNTECLVLLTNFLNHNTMKKFRGEAKKRNIPVVCSKRSVSCLYCEYCKIFGEAAAKNCPLNSFELEHHHHHH | failed
